Here are results for ten molecules from patent US20200299407 (published 2020).

Experiment [1] has as its target Her2 ECD (Pertuzumab KO)-Fc knob (human). Description: SPR, 25C.
The target of experiment [2] is human transferrin receptor (human, UniProt P02786). Description: SPR.
Experiment [3] concerns the target Her2 ECD (Trastuzumab KO)-Fc knob (human). Description: SPR, 25C.
The target is the same in experiment [4]. Description: SPR. In general terms: SPR reads the build-up and loss of mass on a sensor chip optically.
Experiment [5] deals with HER2 ECD (aa 1-629 mature) (human). The experiment in a line: SPR.
Experiment [6] has as its target Her2 ECD (Pertuzumab KO)-Fc knob (human). The experiment in a line: SPR.

Numbering of substitutions follows the chain as printed.

human transferrin receptor, sequence (P02786 89-760): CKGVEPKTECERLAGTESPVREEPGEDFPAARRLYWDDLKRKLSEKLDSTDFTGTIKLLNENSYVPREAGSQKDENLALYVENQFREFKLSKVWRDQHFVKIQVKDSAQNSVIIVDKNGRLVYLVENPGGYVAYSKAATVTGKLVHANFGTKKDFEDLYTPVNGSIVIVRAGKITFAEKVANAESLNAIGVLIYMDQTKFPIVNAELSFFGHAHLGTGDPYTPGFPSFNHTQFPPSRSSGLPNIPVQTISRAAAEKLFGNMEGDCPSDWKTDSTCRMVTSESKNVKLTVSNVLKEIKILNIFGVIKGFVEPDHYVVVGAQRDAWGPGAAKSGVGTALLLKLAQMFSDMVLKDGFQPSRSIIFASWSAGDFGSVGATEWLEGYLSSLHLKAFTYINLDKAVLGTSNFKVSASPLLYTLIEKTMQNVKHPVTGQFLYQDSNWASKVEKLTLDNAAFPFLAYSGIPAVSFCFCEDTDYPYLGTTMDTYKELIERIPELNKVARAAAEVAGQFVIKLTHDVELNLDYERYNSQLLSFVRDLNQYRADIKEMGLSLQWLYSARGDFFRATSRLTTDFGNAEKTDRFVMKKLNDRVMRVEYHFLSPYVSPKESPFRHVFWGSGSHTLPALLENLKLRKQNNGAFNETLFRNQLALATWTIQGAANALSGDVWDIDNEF

B1: Herceptarg CrossMab Trastuzumab arm (antibody, V domains shown)
VH: QVQLVQSGAEVKKPGASVKVSCKASGFNIKDTYIHWVRQAPGQGLEWMGRIYPTNGYTRYAQKFQGRVTMTRDTSISTAYMELSRLRSDDTAVYYCSRWGGEGFYAMDYWGQGTMVTVSS
VL: DIQLTQPPSVSVAPGQTARITCGASQDVSTAVAWYQQKPGQAPVLVVYSASFLYSGIPSRFSGSRSGTDFTLTISRVEAGDEADYYCQQHYTTPPTFGTGTKVTVLR
The Kd is a measure of binding affinity in units of concentration. The molecule B1 returned an equilibrium dissociation constant (Kd) in experiment [1] of 0.8 nM.

B2: VH23-DANG/VL0(rb) (antibody, V domains shown)
VH: QSMQESGPGLVKPSQTLSLTCTVSGFSLSSYAMSWIRQHPGKGLEWIGYIWSGGSTDYASWAKSRVTISKTSTTVSLKLSSVTAADTAVYYCARRYGTSYPDYGDANGFDPWGQGTLVTVSS
VL: AYDMTQTPASVEVAVGGTVTIKCQASQSISSYLSWYQQKPGQRPKLLIYRASTLASGVSSRFKGSGSGTQFTLTISGVECADAATYYCQQCYSSSNVDNTFGGGTEVVVKR
By koff is commonly meant the rate constant with which the complex falls apart. Take B2: the dissociation rate constant (koff) in experiment [2] is 0.000338 s⁻¹.

B3: Herceptarg CrossMab Pertuzumab arm (antibody)
chain 1: not shown
chain 2: DIQMTQSPSSLSASVGDRVTITCKASQDVSIGVAWYQQKPGKAPKLLIYSASYRYTGVPSRFSGSGSGTDFTLTISSLQPEDFATYYCQQYYIYPYTFGQGTKVEIKSSASTKGPSVFPLAPSSKSTSGGTAALGCLVKDYFPEPVTVSWNSGALTSGVHTFPAVLQSSGLYSLSSVVTVPSSSLGTQTYICNVNHKPSNTKVDKKVEPKSC
In turn, B3 had a Kd in experiment [3] of 0.84 nM.

B4: Pertuzumab (antibody)
chain 1: EVQLVESGGGLVQPGGSLRLSCAASGFTFTDYTMDWVRQAPGKGLEWVADVNPNSGGSIYNQRFKGRFTLSVDRSKNTLYLQMNSLRAEDTAVYYCARNLGPSFYFDYWGQGTLVTVSS
chain 2: DIQMTQSPSSLSASVGDRVTITCKASQDVSIGVAWYQQKPGKAPKLLIYSASYRYTGVPSRFSGSGSGTDFTLTISSLQPEDFATYYCQQYYIYPYTFGQGTKVEIK
For the molecule B4, the dissociation constant Kd in experiment [4] stood at 0.62 nM; in experiment [5], 0.147 nM. In experiment [6], the binding result is given as “no binding”.

B5: Herceptarg E1 Pertuzumab arm (antibody, V domains shown)
VH: B4 chain 1 with T30A, S103W
VL: B4 chain 2 with I31T, G32A, Y53F, G66R, Y91H, I93T, Y94T, Y96P
As for B5, the dissociation constant Kd in experiment [3] is 1.32 nM.

B6: Herceptarg D1-derived Trastuzumab arm (antibody, V domains shown)
VH: not shown
VL: B4 chain 2 with I31T, G32A, Y53F, G66R, Y91H, I93T, Y94T, Y96P
B6 showed a Kd in experiment [1] of 0.6 nM.

B7: Herceptarg D1-derived Pertuzumab arm (antibody, V domains shown)
VH: B4 chain 1 with T30N, Y60V, Q62R, S103F
VL: B4 chain 2 with I31T, G32A, Y53F, G66R, Y91H, I93T, Y94T, Y96P
For B7, binding in experiment [3] was put at a Kd of 0.16 nM.

B8: Herceptarg G2 Pertuzumab arm (antibody, V domains shown)
VH: B4 chain 1 with S58Y, Y60V, Q62R
VL: B4 chain 2 with I31T, G32A, Y53F, G66R, Y91H, I93T, Y94T, Y96P
B8: in experiment [3], binding was characterised by a dissociation constant (Kd) of 9.65 nM.

B9: Herceptarg G2 Trastuzumab arm (antibody, V domains shown)
VH: not shown
VL: B4 chain 2 with I31T, G32A, Y53F, G66R, Y91H, I93T, Y94T, Y96P
On to B9, for which the affinity in experiment [1], expressed as Kd, was 1.82 nM.

B10: Herceptarg CLC Trastuzumab arm (E1) (antibody, V domains shown)
VH: not shown
VL: B4 chain 2 with I31T, G32A, Y53F, G66R, Y91H, I93T, Y94T, Y96P
Molecule B10 registered a Kd in experiment [1] of 0.72 nM. This Kd is about 2.5-fold lower than that of the molecule before.
